Measured values published in patent EP2149585A1 (Novartis Vaccines and Diagnostics, Inc., dated 2010).

Columns and labels:
[1] = target: T1, CD40 Domain 2 peptide, spot 20 (human); test: SPOTs membrane of 10mer peptides, stripped and reprobed
T1 construct: 10mer on a SPOTs membrane
T1 peptide: HKYCDPNLGL

[2] = target: T2, CD40 Domain 2 peptide, spot 22 (human); test: as above
T2 construct: 10mer on a SPOTs membrane
T2 peptide: YCDPNLGLRV

[3] = target: T3, CD40 Domain 2 peptide, spot 21 (human); test: as above
T3 construct: 10mer on a SPOTs membrane
T3 peptide: KYCDPNLGLR

[4] = target: T4, Recombinant soluble CD40-his (human, UniProt P25942 21-193); test: Biacore SPR: antibody captured on immobilized protein A, CD40-his flowed at varying concentrations; 1:1 model, global fit
T4 construct: Soluble recombinant CD40 with his tag used in Biacore

[5] = target: T5, CD40 extracellular Domain 2 GST fusion protein (human, UniProt P25942 61-104); test: SDS-PAGE and western blot of GST-domain fusion proteins from insect cell supernatant
T5 construct: Secreted from insect cells with a GP67 secretion signal; not shown: glutathione S-transferase (GST) fusion partner
T5 chain: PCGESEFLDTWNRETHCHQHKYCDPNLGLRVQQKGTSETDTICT

[6] = target: T6, CD40 Domain 2 10mer peptide, spot 20 (HKYCDPNLGL) (human); test: SPOTs peptide membrane stripped and reprobed with the mAb; spot 20 listed as recognized
T6 peptide: HKYCDPNLGL

[7] = target: T7, CD40 Domain 2 10mer peptide, spot 22 (YCDPNLGLRV) (human); test: SPOTs peptide membrane stripped and reprobed with the mAb; spot 22 listed as recognized
T7 peptide: YCDPNLGLRV

[8] = target: T8, CD40 Domain 2 10mer peptide, spot 21 (KYCDPNLGLR) (human); test: SPOTs peptide membrane stripped and reprobed with the mAb; spot 21 listed as recognized
T8 peptide: KYCDPNLGLR

[9] = target: T9, CD40 extracellular Domain 2 GST fusion protein (human, UniProt P25942 61-104); test: Western blot, GST fusion of Domain 2 from insect cell supernatant
T9 construct: Expressed in insect cells with a GP67 secretion signal; not shown: GST fusion partner
T9 chain: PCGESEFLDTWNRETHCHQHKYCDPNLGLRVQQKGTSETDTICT

[10] = target: T10, CD40 extracellular Domain 3 GST fusion protein (human, UniProt P25942 105-144); test: Western blot, GST fusion of the domain from insect cell supernatant
T10 construct: Expressed in insect cells with a GP67 secretion signal; only the domain stood in the assay; not shown: GST fusion partner
T10 chain: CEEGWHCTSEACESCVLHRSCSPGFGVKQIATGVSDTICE

[11] = target: T11, CD40 extracellular Domain 4 GST fusion protein (human, UniProt P25942 145-187); test: as above
T11 construct: Expressed in insect cells with a GP67 secretion signal; only the domain stood in the assay; not shown: GST fusion partner
T11 chain: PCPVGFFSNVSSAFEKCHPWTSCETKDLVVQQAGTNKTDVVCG

[12] = target: T12, CD40 extracellular Domain 1 GST fusion protein (human, UniProt P25942 21-60); test: as above
T12 construct: Expressed in insect cells with a GP67 secretion signal; only the domain stood in the assay; not shown: GST fusion partner
T12 chain: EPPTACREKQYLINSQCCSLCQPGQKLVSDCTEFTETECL

[13] = target: human CD40 on the cell surface (human, UniProt P25942 20-277); test: cell-based or functional assay
[14] = target: T4, Recombinant soluble CD40-his; test: Biacore SPR, CD40-his over captured antibody
[15] = target: T13, CD40 Domain 2 peptide, spot 18 (human); test: SPOTs membrane of 10mer peptides, antibody at 10 µg/ml
T13 construct: 10mer on a SPOTs membrane
T13 peptide: HQHKYCDPNL

[16] = target: T1, CD40 Domain 2 peptide, spot 20; test: as above
[17] = target: T14, CD40 Domain 2 peptide, spot 19 (human); test: as above
T14 construct: 10mer on a SPOTs membrane
T14 peptide: QHKYCDPNLG

[18] = target: T2, CD40 Domain 2 peptide, spot 22; test: as above
[19] = target: T3, CD40 Domain 2 peptide, spot 21; test: as above
[20] = target: T6, CD40 Domain 2 10mer peptide, spot 20 …; test: SPOTs peptide membrane probed with the mAb at 10 µg/ml, anti-human IgG beta-galactosidase secondary; spot 20 listed as positive
[21] = target: T15, CD40 Domain 2 10mer peptide, spot 19 (QHKYCDPNLG) (human); test: SPOTs peptide membrane probed with the mAb at 10 µg/ml, anti-human IgG beta-galactosidase secondary; spot 19 listed as positive
T15 peptide: QHKYCDPNLG

[22] = target: T8, CD40 Domain 2 10mer peptide, spot 21 …; test: SPOTs peptide membrane probed with the mAb at 10 µg/ml, anti-human IgG beta-galactosidase secondary; spot 21 listed as positive
[23] = target: T7, CD40 Domain 2 10mer peptide, spot 22 …; test: SPOTs peptide membrane probed with the mAb at 10 µg/ml, anti-human IgG beta-galactosidase secondary; spot 22 listed as positive
[24] = target: T16, CD40 Domain 2 10mer peptide, spot 18 (HQHKYCDPNL) (human); test: SPOTs peptide membrane probed with the mAb at 10 µg/ml, anti-human IgG beta-galactosidase secondary; spot 18 listed as positive
T16 peptide: HQHKYCDPNL

Sequence of human CD40 on the cell surface (P25942 20-277): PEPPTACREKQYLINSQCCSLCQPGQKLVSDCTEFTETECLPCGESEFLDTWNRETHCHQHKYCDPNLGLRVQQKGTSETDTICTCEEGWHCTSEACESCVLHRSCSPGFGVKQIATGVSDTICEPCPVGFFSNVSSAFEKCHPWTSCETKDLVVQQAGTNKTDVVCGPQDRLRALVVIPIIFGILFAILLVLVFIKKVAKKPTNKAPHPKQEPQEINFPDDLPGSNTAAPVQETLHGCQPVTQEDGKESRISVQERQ

B1: CHIR-5.9 (antibody, human IgG1, kappa)
heavy: not shown
light: AIVMTQPPLSSPVTLGQPASISCRSSQSLVHSDGNTYLNWLQQRPGQPPRLLIYKFFRRLSGVPDRFSGSGAGTDFTLKISRVEAEDVGVYYCMQVTQFPHTFGQGTRLEIKRTVAAPSVFIFPPSDEQLKSGTASVVCLLNNFYPREAKVQWKVDNALQSGNSQESVTEQDSKDSTYSLSSTLTLSKADYEKHKVYACEVTHQGLSSPVTKSFNRGEC
notes: also called mAb CHIR-5.9
[1]
  binding result: binds
[2]
  binding result: binds
[3]
  binding result: binds
[4]
  Kd: 12.2 nM
  koff: 0.015 s⁻¹
  kon: 1.24e+06 M⁻¹ s⁻¹
[5]
  binding result: binds

B2: anti-CD40 monoclonal antibody CHIR-5.9 (antibody, human IgG1, kappa)
light: AIVMTQPPLSSPVTLGQPASISCRSSQSLVHSDGNTYLNWLQQRPGQPPRLLIYKFFRRLSGVPDRFSGSGAGTDFTLKISRVEAEDVGVYYCMQVTQFPHTFGQGTRLEIKRTVAAPSVFIFPPSDEQLKSGTASVVCLLNNFYPREAKVQWKVDNALQSGNSQESVTEQDSKDSTYSLSSTLTLSKADYEKHKVYACEVTHQGLSSPVTKSFNRGEC
heavy: not shown
notes: Fully human IgG1 kappa; also called mAb CHIR-5.9; CHIP-5.9
[6]
  binding result: binds
[7]
  binding result: binds
[8]
  binding result: binds

B3: monoclonal antibody CHIR-5.9 (antibody, human IgG1, kappa)
light: AIVMTQPPLSSPVTLGQPASISCRSSQSLVHSDGNTYLNWLQQRPGQPPRLLIYKFFRRLSGVPDRFSGSGAGTDFTLKISRVEAEDVGVYYCMQVTQFPHTFGQGTRLEIKRTVAAPSVFIFPPSDEQLKSGTASVVCLLNNFYPREAKVQWKVDNALQSGNSQESVTEQDSKDSTYSLSSTLTLSKADYEKHKVYACEVTHQGLSSPVTKSFNRGEC
heavy: not shown
notes: Fully human IgG1 kappa anti-human CD40 mAb; Leader residues (1-20 light, 1-19 heavy) left out as stated; also called mAb CHIR-5.9
[9]
  binding result: binds
[10]
  binding result: no binding
[11]
  binding result: no binding
[12]
  binding result: no binding

B4: CHIR-12.12 (antibody, human IgG1, kappa)
heavy: not shown
light: DIVMTQSPLSLTVTPGEPASISCRSSQSLLYSNGYNYLDWYLQKPGQSPQVLISLGSNRASGVPDRFSGSGSGTDFTLKISRVEAEDVGVYYCMQARQTPFTFGPGTKVDIRRTVAAPSVFIFPPSDEQLKSGTASVVCLLNNFYPREAKVQWKVDNALQSGNSQESVTEQDSKDSTYSLSSTLTLSKADYEKHKVYACEVTHQGLSSPVTKSFNRGEC
[13]
  average IC50 of inhibition of CD40 ligand-induced lymphocyte proliferation, lymphocytes from 6 donors: 47 pM
[14]
  fold difference in the off rate against CHIR-5.9: 121 fold
  fold higher affinity against CHIR-5.9: 24 fold
[15]
  binding result: binds
[16]
  binding result: binds
[17]
  binding result: binds
[18]
  binding result: binds
[19]
  binding result: binds
[4]
  Kd: 0.51 nM
  koff: 0.000124 s⁻¹
  kon: 241000 M⁻¹ s⁻¹
[5]
  binding result: binds

B5: monoclonal antibody CHIR-12.12 (antibody, human IgG1, kappa)
light: DIVMTQSPLSLTVTPGEPASISCRSSQSLLYSNGYNYLDWYLQKPGQSPQVLISLGSNRASGVPDRFSGSGSGTDFTLKISRVEAEDVGVYYCMQARQTPFTFGPGTKVDIRRTVAAPSVFIFPPSDEQLKSGTASVVCLLNNFYPREAKVQWKVDNALQSGNSQESVTEQDSKDSTYSLSSTLTLSKADYEKHKVYACEVTHQGLSSPVTKSFNRGEC
heavy: not shown
notes: Fully human IgG1 kappa anti-human CD40 mAb; Leader residues (1-20 light, 1-19 heavy) left out as stated
[9]
  binding result: binds
[10]
  binding result: no binding
[11]
  binding result: no binding
[12]
  binding result: no binding

B6: anti-CD40 monoclonal antibody CHIR-12.12 (antibody, human IgG1, kappa)
light: DIVMTQSPLSLTVTPGEPASISCRSSQSLLYSNGYNYLDWYLQKPGQSPQVLISLGSNRASGVPDRFSGSGSGTDFTLKISRVEAEDVGVYYCMQARQTPFTFGPGTKVDIRRTVAAPSVFIFPPSDEQLKSGTASVVCLLNNFYPREAKVQWKVDNALQSGNSQESVTEQDSKDSTYSLSSTLTLSKADYEKHKVYACEVTHQGLSSPVTKSFNRGEC
heavy: not shown
notes: Fully human IgG1 kappa
[20]
  binding result: binds
[21]
  binding result: binds
[22]
  binding result: binds
[23]
  binding result: binds
[24]
  binding result: binds
